In the supplement of paper PMC10567573:

B1: RSPH3 (parent)
chain: MTVKPAKAASLARNLAKRRRTYLG

Variants of: B1
Assay: protein stability index of a GFP-peptide fusion (GPS, HEK-293T) (PSI 1-6); higher = more stable
Conditions: c terminus: a fixed tail appended
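Further: lentivirally expressed fusions sorted by FACS into six bins by GFP to DsRed ratio, PSI derived from sequencing read proportions per bin multiplied by bin number.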

Protein stability index: each site, then its substitutions
A12: E 2.83; N 2.49; V 2.16; H 2.17; D 3.94; M 2.22; C 2.87; G 3.21; K 3.22; W 2.09; S 2.39; F 1.94; I 2.69; Q 3.11; P 2.87; R 3.67; L 1.34; T 3.28; Y 2.19
R18: W 2.55; Y 2.27; C 2.62; D 3; S 2.96; N 2.31; E 3.33; G 3.22; M 2.38; P 2.38; L 2.55; T 2.73; V 2.91; H 2.91; Q 2.52; K 2.55; I 2.63; F 2.71; A 3.3
A9: M 2.2; I 1.79; L 1.79; W 1.9; Y 3.04; E 3.65; P 3.03; R 2.42; T 3.11; N 3.58; K 2.64; C 2.73; S 2.95; D 2.9; G 2.71; Q 2.77; H 3.37; V 3.28; F 2.62
R13: T 2.66; K 3.08; V 2.56; N 3.63; C 3.12; I 2.7; F 2.29; S 2.8; W 1.8; M 2.39; Q 3.48; E 3.08; L 2.36; D 2.85; P 2.48; H 2.42; A 3.26; G 2.86
K17: Q 2.49; V 2.64; C 1.99; I 2.46; A 3.39; L 2.61; P 3.02; E 2.99; Y 2.38; D 3.25; R 3.04; W 1.92; N 2.57; M 2.8; F 2.1; G 3.5; S 2.91; T 3; H 2.99
R19: M 3.63; H 1.51; D 2.88; S 2.51; P 1.86; A 1.79; G 2.85; E 3.49; T 2.52; Y 2.42; Q 2.62; K 2.86; W 1.64; I 1.77; C 1.6; N 2.37; V 1.45; L 2.05; F 1.23
A6: E 3.24; I 2.43; L 1.63; T 2.99; K 2.67; V 2.89; Y 2.93; H 3.38; D 1.79; W 1.91; R 2.19; N 2.88; S 3; C 2.72; Q 3.58; G 3.13; P 3.92; F 3.04; M 2.27
N14: V 2.53; F 1.96; C 2.14; S 2.62; E 2.88; Y 2.75; I 1.22; P 2.8; K 2.4; M 2.39; Q 3.41; T 3.29; A 1.87; G 3.21; D 3.08; R 2.13; H 1.94; W 2.67
A8: G 2.4; L 2.65; R 2.3; E 3.25; N 2.58; I 2.17; H 2.68; K 3.23; T 2.87; F 2.03; W 2.46; V 2.57; P 2.04; Q 2.5; M 2.62; S 2.55; C 2.52; D 3.43; Y 2.04
L15: R 3.92; I 3.14; V 4.02; C 3.14; F 2.08; E 4.42; K 3.48; D 4.11; A 4.08; M 2.58; N 3.56; Q 3.34; H 3.32; P 3.75; T 3.35; S 3.75; G 4.08; Y 2.84
A16: T 2.69; S 3.36; Y 2.53; I 2.28; P 3.42; Q 2.19; G 3.15; F 2.48; W 1.82; E 2.15; H 3.91; C 2.72; K 3.44; N 2.72; D 3.04; L 2.35; M 2.57; R 3.35; V 3.28
K7: I 2.46; C 2.56; M 2.93; Q 3.88; G 3.13; H 3.82; T 3.06; F 2.2; A 3.46; P 3.18; L 3.62; E 3.59; D 3.25; W 3.15; S 2.66; R 2.96; V 2.44; Y 2.23; N 3.21
V3: R 2.98; M 2.31; Y 2.68; S 2.62; N 3.22; T 3.5
S10: L 3.35; K 2.1; M 2.02; E 2.74; D 2.96; P 3.1; F 2.35; G 2.88; I 2.55; A 2.86; V 3.34; Y 2.03; W 2.47; R 3.92; C 2.01; T 3.41; H 3.28; N 2.99
P5: C 2.05; R 2.48; F 1.52; Y 2.14; E 2.52; L 3.36; N 3.24; S 2.56; H 2.91; I 1.73; K 2.92; T 3.29; D 3.8; G 2.75; M 2.92; A 2.93; Q 2.63; W 2.48; V 2.69
T21: I 2.54; C 2.73; F 1.93; A 3.09; K 3.9; M 2.7; E 3.47; L 2.98; H 2.79; N 2.98; D 3.59; G 2.83
R20: D 3.08; W 2.2; P 2.81; I 2.17; S 2.61; L 1.81; M 2.72; H 2.59; K 3.12; F 1.96; E 2.81; Y 1.51; N 2.94; T 2.61; C 1.91; V 1.63; A 2.41; Q 3.83
L11: T 3.36; F 2.19; Y 3.01; C 2.54; M 3.16; R 2.18; A 4; Q 3.79; H 3.66; G 3; W 1.83; E 4.03; I 2.61; K 3.15; S 3.29; N 3.99; D 3.46; P 3.68; V 3.3
K4: Y 2.58; A 2; V 2.6; W 2.25; Q 3.95; T 3.38; D 2.97; E 2.1; C 2.8; S 3.36; M 3.46; H 3.7; P 2.94; L 2.13; I 1.87; N 2.69; F 2.34
